US20140243227A1, “CULTURE MEDIA FOR STEM CELLS” (Koninklijke Nederlandse Akademie van Wetenschappen, priority 2011, published 2014)

B1: Noggin: BMP inhibitor (protein, UniProt Q13253 28-232, looked up)
Noggin: QHYLHIRPAPSDNLPLVDLIEHPDPIFDPKEKDLNETLLRSLLGGHYDPGFMATSPPEDRPGGGGGAAGGAEDLAELDQLLRQRPSGAMPSEIKGLEFSEGLAQGKKQRLSKKLRRKLQMWLWSQTFCPVLYAWNDLGSRFWPRYVKVGSCFSKRSCSVPEGMVCKPSKSVHLTVLRWRCQRRGGQRCGWIPIQYPIISECKCSC
B2: RANK ligand: RANK ligand (RANKL), recombinant (protein, UniProt O14788 140-317, looked up)
Tumor necrosis factor ligand …: IRAEKAMVDGSWLDLAKRSKLEAQPFAHLTINATDIPSGSHKVSLSSWYHDRGWAKISNMTFSNGKLIVNQDGFYYLYANICFRHHETSGDLATEYLQLMVYVTKTSIKIPSSHTLMKGGSTKYWSGNSEFHFYSINVGGFFKLRSGEEISIEVSNPSLLDPDQDATYFGAFKVRDID
B3: GDNF: growth factor (Peprotech) (protein, UniProt P39905 78-211, looked up)
Glial cell line-derived …: SPDKQMAVLPRRERNRQAAAANPENSRGKGRRGQRGKNRGCVLTAIHLNVTDLGLGYETKEELIFRYCSGSCDAAETTYDKILKNLSRNRRLVSDKVGQACCRPIAFDDDLSFLDDNLVYHILRKHSAKRCGCI
B4: BDNF: brain-derived neurotrophic factor (protein, UniProt P23560 19-247, looked up)
Neurotrophic factor BDNF …: APMKEANIRGQGGLAYPGVRTHGTLESVNGPKAGSRGLTSLADTFEHVIEELLDEDQKVRPNEENNKDADLYTSRVMLSSQVPLEPPLLFLLEEYKNYLDAANMSMRVRRHSDPARRGELSVCDSISEWVTAADKKTAVDMSGGTVTVLEKVPVSKGQLKQYFYETKCNPMGYTKEGCRGIDKRHWNSQCRTTQSYVRALTMDSKKRIGWRFIRIDTSCVCTLTIKRGR
B5: Cyr61: growth factor (Peprotech) (protein, UniProt O00622 25-381, looked up)
CCN family member 1: TCPAACHCPLEAPKCAPGVGLVRDGCGCCKVCAKQLNEDCSKTQPCDHTKGLECNFGASSTALKGICRAQSEGRPCEYNSRIYQNGESFQPNCKHQCTCIDGAVGCIPLCPQELSLPNLGCPNPRLVKVTGQCCEEWVCDEDSIKDPMEDQDGLLGKELGFDASEVELTRNNELIAVGKGSSLKRLPVFGMEPRILYNPLQGQKCIVQTTSWSQCSKTCGTGISTRVTNDNPECRLVKETRICEVRPCGQPVYSSLKKGKKCSKTKKSPEPVRFTYAGCLSVKKYRPKYCGSCVDGRCCTPQLTRTVKMRFRCEDGETFSKNVMMIQSCKCNYNCPHANEAAFPFYRLFNDIHKFRD
B6: FGF10: human recombinant FGF10 (Peprotech) (protein, UniProt O15520 38-208, looked up)
Fibroblast growth factor 10: QALGQDMVSPEATNSSSSSFSSPSSAGRHVRSYNHLQGDVRWRKLFSFTKYFLKIEKNGKVSGTKKENCPYSILEITSVEIGVVAVKAINSNYYLAMNKKGKLYGSKEFNNDCKLKERIEENGYNTYASFNWQHNGRQMYVALNGKGAPRRGQKTRRKNTSAHFLPMVVHS
B7: Follistatin: growth factor (Peprotech) (protein, UniProt P19883 30-344, looked up)
Follistatin: GNCWLRQAKNGRCQVLYKTELSKEECCSTGRLSTSWTEEDVNDNTLFKWMIFNGGAPNCIPCKETCENVDCGPGKKCRMNKKNKPRCVCAPDCSNITWKGPVCGLDGKTYRNECALLKARCKEQPELEVQYQGRCKKTCRDVFCPGSSTCVVDQTNNAYCVTCNRICPEPASSEQYLCGNDGVTYSSACHLRKATCLLGRSIGLAYEGKCIKAKSCEDIQCTGGKKCLWDFKVGRGRCSLCDELCPDSKSDEPVCASDNATYASECAMKEAACSSGVLLEVKHSGSCNSISEDTEEEEEDEDQDYSFPISSILEW

Key:
pancreatic organoids = experiment: Effect of Noggin on gene expression of pancreatic organoids in expansion medium; settings: EGFRAN vs EGFRA medium
mouse organoids = experiment: M cell development in organoids stimulated with RANK ligand; type: cell-based
Method: FIG. 48: A) Mouse organoids were cultured in the presence of different doses recombinant mouse RANKL for 72 h. mRNA expression levels for RANK, the transciption factor SpiB and the M cell-specific markers GP2 and AnnexinV were determined by qPCR.

human colon crypts = experiment: Screening of reagents for optimization of human intestinal organoids culture (plating efficiency); type: cell-based; settings: First screening (WENR)
[1] = tested on: Barrett's Esophagus epithelium; experiment: Culture of Barrett's esophagus (BE) organoids; settings: FGF10 added to HISC condition

| Molecule | Activity (plating efficiency compared with control after 4 days culture) (human colon crypts) | further results |
| --- | --- | --- |
| B1 | – | Lgr5 expression relative to organoids cultured without Noggin (pancreatic organoids): 2 fold |
| B2 | – | Development of M cells (mouse organoids): can develop into M cells |
| B3 | 0 | – |
| B4 | 0 | – |
| B5 | 0 | – |
| B6 | 0 | Culture duration of BE organoids [1]: > 3 months |
| B7 | 0 | – |
